Data as given in paper PMC6555819, “Comprehensive study of nuclear receptor DNA binding provides a revised framework for understanding receptor specificity”.

B1: NRC3_wobSeed100_DR4_C12T_o1 (dsDNA)
DNA 1: GCCCTACTGGGTCACGAAAGGTCATTGATTCAGTGAGCGATTGACAGCGTAGAATGAAGG
DNA 2: CCTTCATTCTACGCTGTCAATCGCTCACTGAATCAATGACCTTTCGTGACCCAGTAGGGC
B2: NRC3_random_hg19_257_o1 (dsDNA)
DNA 1: GCACACTGACAATAGCATACACCTTTCCAGAATGCGGCGATTGACAGCGTAGAATGAAGG
DNA 2: CCTTCATTCTACGCTGTCAATCGCCGCATTCTGGAAAGGTGTATGCTATTGTCAGTGTGC
B3: NRC3_random_hg19_138_o1 (dsDNA)
DNA 1: GCTAGGTTCTCAGAGTAAGAAGTCCATGTTGGTTAGGCGATTGACAGCGTAGAATGAAGG
DNA 2: CCTTCATTCTACGCTGTCAATCGCCTAACCAACATGGACTTCTTACTCTGAGAACCTAGC
B4: NRC3_random_hg19_266_o1 (dsDNA)
DNA 1: GCAATGACAAGGAAGTGTGGAGGCAGAAAGTGCCAAGCGATTGACAGCGTAGAATGAAGG
DNA 2: CCTTCATTCTACGCTGTCAATCGCTTGGCACTTTCTGCCTCCACACTTCCTTGTCATTGC
B5: NRC3_wobSeed72_DR2_G20T_o1 (dsDNA)
DNA 1: GCTCGAGTAGGTTACGGGGTCATTCAGGGATGAAGAGCGATTGACAGCGTAGAATGAAGG
DNA 2: CCTTCATTCTACGCTGTCAATCGCTCTTCATCCCTGAATGACCCCGTAACCTACTCGAGC
B6: NRC3_random_hg19_192_o1 (dsDNA)
DNA 1: GCGCAGGAAGCCCTCCTCCAGCTTACAGTGGAACTCGCGATTGACAGCGTAGAATGAAGG
DNA 2: CCTTCATTCTACGCTGTCAATCGCGAGTTCCACTGTAAGCTGGAGGAGGGCTTCCTGCGC
B7: NRC3_wobSeed133_DR5_T19G_o1 (dsDNA)
DNA 1: GCCGTCCAAGGTCAATGCGAGGTCAGTGAAAGCATTGCGATTGACAGCGTAGAATGAAGG
DNA 2: CCTTCATTCTACGCTGTCAATCGCAATGCTTTCACTGACCTCGCATTGACCTTGGACGGC
B8: NRC3_wobSeed73_DR3_T8C_o1 (dsDNA)
DNA 1: GCCAAACCAGGTCACAGAGGTCAAAGTCCGTGCGTAGCGATTGACAGCGTAGAATGAAGG
DNA 2: CCTTCATTCTACGCTGTCAATCGCTACGCACGGACTTTGACCTCTGTGACCTGGTTTGGC

The binders below were run against THRa:RXRa (Homo sapiens, UniProt P10827;P19793 full;full) (assay: no ligand; PBM; 90 nM : 90 nM RXRa; PBS pH 7.4, 2% milk, 0.02% Triton X-100, 1 mM DTT, BSA, 0.4 mg/ml salmon testes DNA). Conditions: tags: His kept;His cleaved; copies: 1;1; label: surface-attached array probe.
Sequence of THRa:RXRa (P10827 other isoform, or with tags, fused parts or gaps, chain 1 of 2): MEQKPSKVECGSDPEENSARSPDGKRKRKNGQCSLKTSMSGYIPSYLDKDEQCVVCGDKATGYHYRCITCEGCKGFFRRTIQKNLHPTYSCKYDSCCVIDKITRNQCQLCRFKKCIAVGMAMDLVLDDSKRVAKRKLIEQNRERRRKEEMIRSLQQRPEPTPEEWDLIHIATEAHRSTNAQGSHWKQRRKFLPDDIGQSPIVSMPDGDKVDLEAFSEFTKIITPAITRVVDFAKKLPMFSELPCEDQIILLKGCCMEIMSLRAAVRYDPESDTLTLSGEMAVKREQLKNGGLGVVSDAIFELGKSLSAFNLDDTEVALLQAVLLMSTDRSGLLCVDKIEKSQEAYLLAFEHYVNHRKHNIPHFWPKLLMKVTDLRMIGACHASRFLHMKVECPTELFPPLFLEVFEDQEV
Sequence of THRa:RXRa (P19793 whole entry, chain 2 of 2): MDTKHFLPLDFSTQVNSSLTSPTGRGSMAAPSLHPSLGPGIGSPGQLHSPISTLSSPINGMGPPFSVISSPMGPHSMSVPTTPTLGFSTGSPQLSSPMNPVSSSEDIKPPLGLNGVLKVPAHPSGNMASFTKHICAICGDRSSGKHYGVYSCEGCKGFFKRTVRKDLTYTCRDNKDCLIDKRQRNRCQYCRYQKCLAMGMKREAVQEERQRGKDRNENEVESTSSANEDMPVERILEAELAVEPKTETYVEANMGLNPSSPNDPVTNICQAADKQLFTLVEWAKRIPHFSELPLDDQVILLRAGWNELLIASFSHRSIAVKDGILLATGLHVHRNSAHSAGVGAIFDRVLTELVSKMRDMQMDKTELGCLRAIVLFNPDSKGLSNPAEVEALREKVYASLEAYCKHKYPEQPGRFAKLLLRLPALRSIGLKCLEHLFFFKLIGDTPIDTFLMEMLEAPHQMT

Row | Binder | binding signal
1 | B1 | 5.47 PBM z-score against 500 random probes
2 | B2 | 0.05 PBM z-score against 500 random probes
3 | B3 | 0.16 PBM z-score against 500 random probes
4 | B4 | -0.07 PBM z-score against 500 random probes
5 | B5 | 4.85 PBM z-score against 500 random probes
6 | B6 | -0.77 PBM z-score against 500 random probes
7 | B7 | 5.07 PBM z-score against 500 random probes
8 | B8 | 5.06 PBM z-score against 500 random probes

Each binder was assayed against RARb:RXRa (Homo sapiens, UniProt P10826;P19793 full;full) (assay: no ligand; PBM; 270 nM : 90 nM RXRa; PBS pH 7.4, 2% milk, 0.02% Triton X-100, 1 mM DTT, BSA, 0.4 mg/ml salmon testes DNA). Conditions: tags: His kept;His cleaved; copies: 1;1; label: surface-attached array probe.
How it was run: (§1)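 Each nuclear receptor dimer, without ligand, was incubated for 1 h on custom Agilent 4×180K protein-binding microarrays. Binding was detected with antibodies against each partner (one per run), and scanned fluorescence was regression-normalized. The binding z-scores are referenced to random human genomic background probes.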

Row | Binder | binding signal
9 | B1 | 5.53 PBM z-score against 500 random probes

These binders were tested against VDR:RXRa (Homo sapiens, UniProt P11473;P19793 full;full) in the same assay as above. Conditions: tags: His kept;His cleaved; copies: 1;1; label: surface-attached array probe.
How it was run: as §1

Row | Binder | binding signal
10 | B8 | 8.47 PBM z-score against 500 random probes

The binders below were run against LXRa:RXRa (Homo sapiens, UniProt Q13133;P19793 full;full) in the same assay as above. Conditions: tags: His kept;His cleaved; copies: 1;1; label: surface-attached array probe.
How it was run: as §1

Row | Binder | binding signal
11 | B1 | 8.11 PBM z-score against 500 random probes

What follows are binders tested against LXRb:RXRa (Homo sapiens, UniProt P55055;P19793 full;full) in the same assay as above. Conditions: tags: His kept;His cleaved; copies: 1;1; label: surface-attached array probe.
Sequence of LXRb:RXRa (P55055 whole entry, chain 1 of 2): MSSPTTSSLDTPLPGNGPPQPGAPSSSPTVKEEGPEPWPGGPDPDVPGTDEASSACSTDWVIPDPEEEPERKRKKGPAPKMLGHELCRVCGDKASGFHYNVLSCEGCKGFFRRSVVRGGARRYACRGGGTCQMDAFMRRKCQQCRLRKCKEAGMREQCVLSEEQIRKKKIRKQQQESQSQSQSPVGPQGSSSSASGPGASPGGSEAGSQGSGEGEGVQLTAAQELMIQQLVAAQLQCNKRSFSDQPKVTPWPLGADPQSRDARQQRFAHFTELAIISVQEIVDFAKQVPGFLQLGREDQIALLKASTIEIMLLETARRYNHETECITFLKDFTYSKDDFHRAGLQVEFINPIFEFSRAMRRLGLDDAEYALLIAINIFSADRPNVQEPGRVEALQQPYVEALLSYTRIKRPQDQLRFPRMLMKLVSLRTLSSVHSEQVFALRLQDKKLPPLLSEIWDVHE
Sequence of LXRb:RXRa (P19793 whole entry, chain 2 of 2): as the sequence (P19793 whole entry, chain 2 of 2) above
How it was run: as §1

Row | Binder | binding signal
12 | B1 | 6.66 PBM z-score against 500 random probes
13 | B3 | 0.28 PBM z-score against 500 random probes
14 | B4 | -0.28 PBM z-score against 500 random probes
15 | B6 | -1.14 PBM z-score against 500 random probes
16 | B8 | 6.76 PBM z-score against 500 random probes

What follows are binders tested against FXR:RXRa (Homo sapiens, UniProt Q96RI1;P19793 full;full) in the same assay as above. Conditions: tags: His kept;His cleaved; copies: 1;1; label: surface-attached array probe.
Sequence of FXR:RXRa (Q96RI1 whole entry, chain 1 of 2): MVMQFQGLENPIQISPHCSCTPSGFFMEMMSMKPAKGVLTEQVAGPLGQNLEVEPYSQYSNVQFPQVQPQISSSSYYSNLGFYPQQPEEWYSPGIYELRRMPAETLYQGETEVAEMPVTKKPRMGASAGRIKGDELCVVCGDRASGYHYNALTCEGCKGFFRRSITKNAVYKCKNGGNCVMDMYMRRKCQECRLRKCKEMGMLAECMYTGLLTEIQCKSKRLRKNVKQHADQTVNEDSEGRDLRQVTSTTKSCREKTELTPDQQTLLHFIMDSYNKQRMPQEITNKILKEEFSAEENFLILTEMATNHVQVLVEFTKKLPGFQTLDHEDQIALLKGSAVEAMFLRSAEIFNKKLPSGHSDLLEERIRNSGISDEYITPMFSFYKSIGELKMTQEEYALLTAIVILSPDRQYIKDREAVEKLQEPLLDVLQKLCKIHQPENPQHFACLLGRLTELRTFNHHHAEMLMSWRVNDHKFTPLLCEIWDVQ
Sequence of FXR:RXRa (P19793 whole entry, chain 2 of 2): as the sequence (P19793 whole entry, chain 2 of 2) above
How it was run: as §1

Row | Binder | binding signal
17 | B3 | 0.34 PBM z-score against 500 random probes
18 | B8 | 8 PBM z-score against 500 random probes

Each binder was assayed against PXR:RXRa (Homo sapiens, UniProt O75469;P19793 full;full) in the same assay as above. Conditions: tags: His kept;His cleaved; copies: 1;1; label: surface-attached array probe.
Sequence of PXR:RXRa (O75469 whole entry, chain 1 of 2): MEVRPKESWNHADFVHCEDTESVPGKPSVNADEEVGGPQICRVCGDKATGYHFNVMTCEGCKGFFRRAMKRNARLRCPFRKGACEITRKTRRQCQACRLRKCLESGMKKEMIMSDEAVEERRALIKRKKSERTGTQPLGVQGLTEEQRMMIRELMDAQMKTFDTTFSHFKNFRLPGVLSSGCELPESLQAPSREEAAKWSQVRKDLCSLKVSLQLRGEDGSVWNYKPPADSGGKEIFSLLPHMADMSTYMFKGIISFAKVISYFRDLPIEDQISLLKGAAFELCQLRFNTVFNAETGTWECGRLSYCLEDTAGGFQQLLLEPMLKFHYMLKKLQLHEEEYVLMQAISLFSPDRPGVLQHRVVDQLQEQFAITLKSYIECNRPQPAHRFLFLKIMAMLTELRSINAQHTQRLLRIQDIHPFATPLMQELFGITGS
Sequence of PXR:RXRa (P19793 whole entry, chain 2 of 2): as the sequence (P19793 whole entry, chain 2 of 2) above
How it was run: as §1

Row | Binder | binding signal
19 | B1 | 7.22 PBM z-score against 500 random probes
20 | B2 | 0.17 PBM z-score against 500 random probes
21 | B5 | 6.49 PBM z-score against 500 random probes
22 | B7 | 6.42 PBM z-score against 500 random probes

The binders below were run against RARa:RXRa (Homo sapiens, UniProt P10276;P19793 full;full) in the same assay as above. Conditions: tags: His kept;His cleaved; copies: 1;1; label: surface-attached array probe.
Sequence of RARa:RXRa (P10276 whole entry, chain 1 of 2): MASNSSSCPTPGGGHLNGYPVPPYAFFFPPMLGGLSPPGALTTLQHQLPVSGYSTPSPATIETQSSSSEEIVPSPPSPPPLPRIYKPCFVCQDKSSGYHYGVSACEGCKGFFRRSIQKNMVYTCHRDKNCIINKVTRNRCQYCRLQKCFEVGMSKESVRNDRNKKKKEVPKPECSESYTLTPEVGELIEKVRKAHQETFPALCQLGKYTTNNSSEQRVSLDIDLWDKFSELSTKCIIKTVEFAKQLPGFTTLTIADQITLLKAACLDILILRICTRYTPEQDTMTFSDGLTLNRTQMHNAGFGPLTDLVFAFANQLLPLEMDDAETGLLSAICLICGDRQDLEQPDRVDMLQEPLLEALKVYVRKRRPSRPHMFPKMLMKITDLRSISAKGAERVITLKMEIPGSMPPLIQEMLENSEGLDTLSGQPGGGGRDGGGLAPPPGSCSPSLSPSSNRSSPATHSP
Sequence of RARa:RXRa (P19793 whole entry, chain 2 of 2): as the sequence (P19793 whole entry, chain 2 of 2) above
How it was run: as §1

Row | Binder | binding signal
23 | B1 | 7.1 PBM z-score against 500 random probes
24 | B2 | 0.41 PBM z-score against 500 random probes
25 | B3 | -0.25 PBM z-score against 500 random probes
26 | B4 | -0.53 PBM z-score against 500 random probes
27 | B5 | 7.48 PBM z-score against 500 random probes
28 | B6 | -1.09 PBM z-score against 500 random probes
29 | B7 | 7.03 PBM z-score against 500 random probes
30 | B8 | 8.19 PBM z-score against 500 random probes

What follows are binders tested against RARg:RXRa (Homo sapiens, UniProt P13631;P19793 full;full) in the same assay as above. Conditions: tags: His kept;His cleaved; copies: 1;1; label: surface-attached array probe.
How it was run: as §1

Row | Binder | binding signal
31 | B7 | 8.33 PBM z-score against 500 random probes
